From patent US20240018502

Tests used:
[1] = target: complement protein C3 of cynomolgus monkey plasma
[2] = target: human complement protein C3
[3] = target: T1, quenched fluorescence peptidic substrate containing SKGR/SL (P4-P2' of the PAR-2 activation cleavage site, Ser 33 to Leu 38)
T1 chain: SKGRSL

Protein	ED50 80% cynomolgus plasma (nM), C3 cleavage, C3 ELISA [1]	ED50 80% human plasma (60 min, nM), C3 cleavage [2]	SKGR/SL kcat/Km [3]
Q38H/I41A/D60bT/F60eK/Y60gW/F97T/ins97aE/T98G/F99L/C122S/G151N/Q175L/Q192D (protein) VVGGTDADEGEWPWQVSLHALGHGHACGASLISPNWLVSAAHCYIDTRGKRWSDPTQWTAFLGLHDQSQRSAPGVQERRLKRIISHPFFNDTEGLDYDIALLELEKPAEYSSMVRPISLPDASHVFPAGKAIWVTGWGHTQYGGTNALILQKGEIRVINQTTCENLLPQLITPRMMCVGFLSGGVDSCDGDSGGPLSSVEADGRIFQAGVVSWGDGCAQRNKPGVYTRLPLFRDWIKENTGV	195 nM	65 nM	245 M⁻¹ s⁻¹
Q38H/I41A/D60bV/F60eR/Y60gW/D96P/F97W/ins97aN/T98G/F99L/C122S/G151N/Q175L/Q192E (protein) VVGGTDADEGEWPWQVSLHALGHGHACGASLISPNWLVSAAHCYIDVRGRRWSDPTQWTAFLGLHDQSQRSAPGVQERRLKRIISHPFFNPWNGLDYDIALLELEKPAEYSSMVRPISLPDASHVFPAGKAIWVTGWGHTQYGGTNALILQKGEIRVINQTTCENLLPQLITPRMMCVGFLSGGVDSCEGDSGGPLSSVEADGRIFQAGVVSWGDGCAQRNKPGVYTRLPLFRDWIKENTGV	73 nM	47 nM	1620 M⁻¹ s⁻¹
Q38H/I41A/D60bT/F60eK/Y60gW/F97T/ins97aE/T98G/F99L/C122S/G151H/Q175L/Q192D (protein) VVGGTDADEGEWPWQVSLHALGHGHACGASLISPNWLVSAAHCYIDTRGKRWSDPTQWTAFLGLHDQSQRSAPGVQERRLKRIISHPFFNDTEGLDYDIALLELEKPAEYSSMVRPISLPDASHVFPAGKAIWVTGWGHTQYGGTHALILQKGEIRVINQTTCENLLPQLITPRMMCVGFLSGGVDSCDGDSGGPLSSVEADGRIFQAGVVSWGDGCAQRNKPGVYTRLPLFRDWIKENTGV	136 nM	38 nM	742 M⁻¹ s⁻¹
Q38H/I41A/D60bV/F60eR/Y60gW/F97T/ins97aE/T98G/F99L/C122S/G151H/Q175L/Q192D (protein) VVGGTDADEGEWPWQVSLHALGHGHACGASLISPNWLVSAAHCYIDVRGRRWSDPTQWTAFLGLHDQSQRSAPGVQERRLKRIISHPFFNDTEGLDYDIALLELEKPAEYSSMVRPISLPDASHVFPAGKAIWVTGWGHTQYGGTHALILQKGEIRVINQTTCENLLPQLITPRMMCVGFLSGGVDSCDGDSGGPLSSVEADGRIFQAGVVSWGDGCAQRNKPGVYTRLPLFRDWIKENTGV	133 nM	32 nM	1360 M⁻¹ s⁻¹
Q38H/I41S/D60bT/F60eS/Y60gW/F97D/ins97aV/T98P/F99L/C122S/G151H/Q175L/Q192E (protein) VVGGTDADEGEWPWQVSLHALGHGHSCGASLISPNWLVSAAHCYIDTRGSRWSDPTQWTAFLGLHDQSQRSAPGVQERRLKRIISHPFFNDDVPLDYDIALLELEKPAEYSSMVRPISLPDASHVFPAGKAIWVTGWGHTQYGGTHALILQKGEIRVINQTTCENLLPQLITPRMMCVGFLSGGVDSCEGDSGGPLSSVEADGRIFQAGVVSWGDGCAQRNKPGVYTRLPLFRDWIKENTGV	76 nM	50 nM	959 M⁻¹ s⁻¹
Q38H/I41S/D60bT/F60eS/Y60gW/D96Y/F97E/ins97aV/T98G/F99L/C122S/G151H/Q175L/Q192D (protein) VVGGTDADEGEWPWQVSLHALGHGHSCGASLISPNWLVSAAHCYIDTRGSRWSDPTQWTAFLGLHDQSQRSAPGVQERRLKRIISHPFFNYEVGLDYDIALLELEKPAEYSSMVRPISLPDASHVFPAGKAIWVTGWGHTQYGGTHALILQKGEIRVINQTTCENLLPQLITPRMMCVGFLSGGVDSCDGDSGGPLSSVEADGRIFQAGVVSWGDGCAQRNKPGVYTRLPLFRDWIKENTGV	133 nM	38 nM	865 M⁻¹ s⁻¹
Q38H/I41A/D60bV/F60eR/Y60gW/F97T/ins97aE/T98G/F99L/C122S/G151N/Q175L/Q192D (protein) VVGGTDADEGEWPWQVSLHALGHGHACGASLISPNWLVSAAHCYIDVRGRRWSDPTQWTAFLGLHDQSQRSAPGVQERRLKRIISHPFFNDTEGLDYDIALLELEKPAEYSSMVRPISLPDASHVFPAGKAIWVTGWGHTQYGGTNALILQKGEIRVINQTTCENLLPQLITPRMMCVGFLSGGVDSCDGDSGGPLSSVEADGRIFQAGVVSWGDGCAQRNKPGVYTRLPLFRDWIKENTGV	101 nM	52 nM	925 M⁻¹ s⁻¹
Q38H/I41A/D60bV/F60eR/Y60gW/D96I/F97Y/ins97aN/T98G/F99L/C122S/G151N/Q175L/Q192D (protein) VVGGTDADEGEWPWQVSLHALGHGHACGASLISPNWLVSAAHCYIDVRGRRWSDPTQWTAFLGLHDQSQRSAPGVQERRLKRIISHPFFNIYNGLDYDIALLELEKPAEYSSMVRPISLPDASHVFPAGKAIWVTGWGHTQYGGTNALILQKGEIRVINQTTCENLLPQLITPRMMCVGFLSGGVDSCDGDSGGPLSSVEADGRIFQAGVVSWGDGCAQRNKPGVYTRLPLFRDWIKENTGV	37 nM	27 nM	2320 M⁻¹ s⁻¹
